Values belong to the molecule of their own block, whether it stands above or below them.
Assays:
Assay in all cases: pull-down
[1] = target: GST-5MP1-7A (7 alanine substitutions in AA-box 2) (human) (UniProt Q9Y6E2)
[2] = target: GST-fused human eIF2β (GST-eIF2β) (human) (UniProt P20042)
[3] = target: human eIF2 purified from HeLa cells (human, UniProt P05198 1-315; P20042 1-333; P41091 1-472)
Chain of human eIF2 purified from HeLa cells (human, UniProt P05198 1-315; P20042 1-333; P41091 1-472) (P05198 whole entry, chain 1 of 3): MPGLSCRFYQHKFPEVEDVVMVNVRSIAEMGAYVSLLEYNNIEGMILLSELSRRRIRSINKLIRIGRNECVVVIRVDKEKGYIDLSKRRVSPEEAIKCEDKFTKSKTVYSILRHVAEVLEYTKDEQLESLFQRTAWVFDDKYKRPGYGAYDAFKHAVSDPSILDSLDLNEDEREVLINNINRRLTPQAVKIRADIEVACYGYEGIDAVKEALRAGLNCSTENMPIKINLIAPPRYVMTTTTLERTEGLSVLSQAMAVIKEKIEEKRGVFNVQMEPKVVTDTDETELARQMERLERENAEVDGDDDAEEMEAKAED
Chain of human eIF2 purified from HeLa cells (human, UniProt P05198 1-315; P20042 1-333; P41091 1-472) (P20042 whole entry, chain 2 of 3): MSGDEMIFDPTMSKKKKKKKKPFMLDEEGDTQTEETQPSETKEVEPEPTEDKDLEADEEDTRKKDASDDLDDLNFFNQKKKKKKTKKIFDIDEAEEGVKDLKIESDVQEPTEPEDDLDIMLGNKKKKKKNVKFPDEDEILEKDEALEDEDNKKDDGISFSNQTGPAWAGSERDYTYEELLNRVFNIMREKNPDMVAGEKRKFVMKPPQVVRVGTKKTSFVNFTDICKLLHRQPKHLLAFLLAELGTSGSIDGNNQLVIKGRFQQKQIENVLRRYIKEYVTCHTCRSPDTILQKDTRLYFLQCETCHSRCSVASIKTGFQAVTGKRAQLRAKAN
Chain of human eIF2 purified from HeLa cells (human, UniProt P05198 1-315; P20042 1-333; P41091 1-472) (P41091 whole entry, chain 3 of 3): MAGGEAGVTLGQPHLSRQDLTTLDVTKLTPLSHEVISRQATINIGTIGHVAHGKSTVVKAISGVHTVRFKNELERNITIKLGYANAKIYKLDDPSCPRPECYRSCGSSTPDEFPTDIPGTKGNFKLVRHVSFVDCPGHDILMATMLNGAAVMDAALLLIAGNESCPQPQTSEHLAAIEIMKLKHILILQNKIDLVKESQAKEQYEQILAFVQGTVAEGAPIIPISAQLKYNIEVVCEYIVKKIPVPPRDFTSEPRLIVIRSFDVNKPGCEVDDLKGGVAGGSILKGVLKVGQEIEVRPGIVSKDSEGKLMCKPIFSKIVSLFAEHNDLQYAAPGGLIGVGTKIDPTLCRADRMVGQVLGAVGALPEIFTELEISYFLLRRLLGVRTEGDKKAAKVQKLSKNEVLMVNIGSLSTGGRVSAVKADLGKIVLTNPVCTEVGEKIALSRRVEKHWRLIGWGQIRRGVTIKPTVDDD

Chain of GST-fused human eIF2β (GST-eIF2β) (human) (P20042 whole entry, the tested form may be a part): as the sequence (P20042 whole entry, chain 2 of 3) above

- fold reduction of binding against wild-type GST-5MP1 [1]: > 2 fold
Molecule: human eIF2 purified from HeLa cells (from UniProt P05198 1-315; P20042 1-333; P41091 1-472) (complex)

- fold reduction of binding against wild-type FL-5MP1 [2]: 2 fold
Molecule: FL-5MP1-7A (FLAG-tagged 5MP1 with the AA-box 2 mutation 7A) (from UniProt Q9Y6E2 1-419) (natural protein)

- binding result [3]: binds
B1: GST-5MP1 fusion protein (human eIF5-mimic protein 1) (natural protein, UniProt Q9Y6E2 1-419, looked up)
chain: MNKHQKPVLTGQRFKTRKRDEKEKFEPTVFRDTLVQGLNEAGDDLEAVAKFLDSTGSRLDYRRYADTLFDILVAGSMLAPGGTRIDDGDKTKMTNHCVFSANEDHETIRNYAQVFNKLIRRYKYLEKAFEDEMKKLLLFLKAFSETEQTKLAMLSGILLGNGTLPATILTSLFTDSLVKEGIAASFAVKLFKAWMAEKDANSVTSSLRKANLDKRLLELFPVNRQSVDHFAKYFTDAGLKELSDFLRVQQSLGTRKELQKELQERLSQECPIKEVVLYVKEEMKRNDLPETAVIGLLWTCIMNAVEWNKKEELVAEQALKHLKQYAPLLAVFSSQGQSELILLQKVQEYCYDNIHFMKAFQKIVVLFYKADVLSEEAILKWYKEAHVAKGKSVFLDQMKKFVEWLQNAEEESESEGEEN
